Results as given in article PMC8229081, “A Novel Assay for Phosphoserine Phosphatase Exploiting Serine Acetyltransferase as the Coupling Enzyme” (Life, 2021).

T1: human PSP (phosphoserine phosphatase) (Homo sapiens, UniProt P78330)
T1 construct: gene PSPH
T1 sequence (P78330 1-225): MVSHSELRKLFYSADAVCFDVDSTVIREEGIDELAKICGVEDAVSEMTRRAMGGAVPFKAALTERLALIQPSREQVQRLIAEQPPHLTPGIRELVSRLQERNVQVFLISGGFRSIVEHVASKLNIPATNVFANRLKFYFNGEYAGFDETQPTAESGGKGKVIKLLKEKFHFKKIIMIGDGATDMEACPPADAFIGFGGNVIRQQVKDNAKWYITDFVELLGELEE


How the values were obtained:
[1] = target: T1, human PSP (phosphoserine phosphatase); conditions: 40 µM L-OPS, 15.7 nM PSP, 3 mM MgCl2, pH 7, 37 °C; product inhibition
[2] = substrate: N[C@@H](COP(=O)(O)O)C(=O)O; experiment: purified protein; assay type: biochemical, Homo sapiens; conditions: 50 mM HEPES, 100 mM KCl, 3 mM MgCl2, pH 7, 37 °C, 170 µM acetyl-CoA, 0.5 mM DTNB, 430 mU HiSAT removing product L-serine

% inhibition at 50 mM [1] | Molecule | Km [2] | kcat [2] | kcat/Km [2]
50% | O=P(O)(O)O [phosphate] | – | – | –
– | human PSP (phosphoserine phosphatase) (Homo sapiens) (protein, dimer) MVSHSELRKLFYSADAVCFDVDSTVIREEGIDELAKICGVEDAVSEMTRRAMGGAVPFKAALTERLALIQPSREQVQRLIAEQPPHLTPGIRELVSRLQERNVQVFLISGGFRSIVEHVASKLNIPATNVFANRLKFYFNGEYAGFDETQPTAESGGKGKVIKLLKEKFHFKKIIMIGDGATDMEACPPADAFIGFGGNVIRQQVKDNAKWYITDFVELLGELEE | 40.3 ± 2.8 µM | 44.8 ± 0.9 s⁻¹ | 1.11e+06 ± 100000 M⁻¹ s⁻¹
